Experimental data reported in US20190016826A1 (Genentech, published 2019).

Columns and labels:
[1] = target: T1, Full length human HtrA1 (HuHtrA1) (Q23-P480), N-terminal His6 tag (human, UniProt Q92743 23-480); experiment: cell-based or functional assay
[2] = target: T2, Full length murine HtrA1 (MuHtrA1) (P24-P480), N-terminal His6 tag (murine, UniProt Q9R118 24-480); experiment: cell-based or functional assay
[3] = target: T3, HuHtrA1_PD(H220A) (human, UniProt F1N152 168-386 (bovine entry)); experiment: binding ELISA, plate coated with mutant at 1 ug/ml, 20 min incubation
T3 construct: Alanine mutant of HuHtrA1_PD; also called HuHtrA1 mutant H220A; not shown: thrombin cleavage site
T3 chain: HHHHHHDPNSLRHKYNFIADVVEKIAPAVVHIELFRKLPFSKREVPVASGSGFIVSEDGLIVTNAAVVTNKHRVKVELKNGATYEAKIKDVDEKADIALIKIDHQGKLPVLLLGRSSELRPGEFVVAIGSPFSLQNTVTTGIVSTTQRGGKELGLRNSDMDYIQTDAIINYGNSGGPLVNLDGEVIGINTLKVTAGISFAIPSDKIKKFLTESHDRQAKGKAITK

[4] = target: T4, HuHtrA1_PD(K225A) (human, UniProt F1N152 168-386 (bovine entry)); experiment: as above
T4 construct: Alanine mutant of HuHtrA1_PD; also called HuHtrA1 mutant K225A; not shown: thrombin cleavage site
T4 chain: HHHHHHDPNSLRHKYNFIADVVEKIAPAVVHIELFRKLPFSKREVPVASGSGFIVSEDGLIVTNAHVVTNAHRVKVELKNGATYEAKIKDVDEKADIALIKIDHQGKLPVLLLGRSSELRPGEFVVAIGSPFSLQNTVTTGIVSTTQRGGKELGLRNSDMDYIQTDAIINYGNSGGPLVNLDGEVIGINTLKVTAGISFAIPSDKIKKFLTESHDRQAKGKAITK

[5] = target: T5, HuHtrA1_PD(E247A) (human, UniProt F1N152 168-386 (bovine entry)); experiment: as above
T5 construct: Alanine mutant of HuHtrA1_PD; also called HuHtrA1 mutant E247A; not shown: thrombin cleavage site
T5 chain: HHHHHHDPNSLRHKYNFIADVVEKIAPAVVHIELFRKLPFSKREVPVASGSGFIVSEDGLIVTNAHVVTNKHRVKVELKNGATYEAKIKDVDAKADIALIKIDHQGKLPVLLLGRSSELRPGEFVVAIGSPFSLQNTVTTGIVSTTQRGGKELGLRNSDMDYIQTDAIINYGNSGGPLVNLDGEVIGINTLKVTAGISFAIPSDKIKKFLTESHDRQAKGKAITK

[6] = target: T6, HuHtrA1_PD(T223A) (human, UniProt F1N152 168-386 (bovine entry)); experiment: as above
T6 construct: Alanine mutant of HuHtrA1_PD; also called HuHtrA1 mutant T223A; not shown: thrombin cleavage site
T6 chain: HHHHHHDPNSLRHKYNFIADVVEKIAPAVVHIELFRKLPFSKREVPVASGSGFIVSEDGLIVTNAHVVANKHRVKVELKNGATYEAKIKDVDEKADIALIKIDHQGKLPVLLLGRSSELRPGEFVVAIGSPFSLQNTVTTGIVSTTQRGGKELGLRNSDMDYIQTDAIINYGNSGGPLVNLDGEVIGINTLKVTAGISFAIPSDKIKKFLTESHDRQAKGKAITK

[7] = target: T7, HuHtrA1_PD(K243A) (human, UniProt F1N152 168-386 (bovine entry)); experiment: as above
T7 construct: Alanine mutant of HuHtrA1_PD; also called HuHtrA1 mutant K243A; not shown: thrombin cleavage site
T7 chain: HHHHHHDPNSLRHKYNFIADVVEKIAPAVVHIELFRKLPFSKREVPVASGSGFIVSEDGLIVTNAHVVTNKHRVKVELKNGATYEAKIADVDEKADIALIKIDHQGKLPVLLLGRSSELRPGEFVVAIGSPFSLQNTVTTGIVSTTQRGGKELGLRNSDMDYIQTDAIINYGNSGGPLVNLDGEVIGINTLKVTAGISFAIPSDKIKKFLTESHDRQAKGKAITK

[8] = target: T8, HuHtrA1_PD(V201A) (human, UniProt F1N152 168-386 (bovine entry)); experiment: as above
T8 construct: Alanine mutant of HuHtrA1_PD; also called HuHtrA1 mutant V201A; not shown: thrombin cleavage site
T8 chain: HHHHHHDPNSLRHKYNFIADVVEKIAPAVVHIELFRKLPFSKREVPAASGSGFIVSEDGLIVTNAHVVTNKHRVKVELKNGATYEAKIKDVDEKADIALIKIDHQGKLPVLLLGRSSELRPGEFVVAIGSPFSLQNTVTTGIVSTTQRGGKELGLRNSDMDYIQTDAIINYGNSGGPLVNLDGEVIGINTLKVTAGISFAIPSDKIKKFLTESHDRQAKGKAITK

[9] = target: T1, Full length human HtrA1 (HuHtrA1) …; experiment: SPR (BIAcore T100), single-cycle kinetics, biotinylated human HtrA1 captured on streptavidin, Fab in solution
Description: (§1) To determine the binding affinity of HtrA1 antibodies by single cycle kinetics, Surface Plasmon Resonance (SRP) measurement with a BIAcore™ T100 instrument was used. Briefly, a series S sensor chip CM5 was activated with EDC and NHS reagents according to the supplier's instructions, and streptavidin (Pierce) was coupled to achieve approximately 2000 response units (RU), followed by blocking un-reacted groups with 1M ethanolamine.
(§2) For kinetics measurements, biotinylated human or murine HtrA1 was first injected at 10 ul/min flow rate to capture approximately 100 RU at 3 different flow cells (FC), except for FC1 (reference), and then 5-fold serial dilutions of anti-HtrA1 Fab in HBS-P buffer (0.01M HEPES pH 7.4, 0.15M NaCl, 0.005% surfactant P20) from low (0.48 nM) to high (300 nM) [5 points] were injected (flow rate: 30 μl/min) one after the other in the same cycle with no regeneration between injections. The sensorgram was recorded and subject to reference and buffer subtraction before evaluation by BIAcore™ T100 Evaluation Software (version 2.0). Association rates (km) and dissociation rates (koff) were calculated using a simple one-to-one Langmuir binding model. The equilibrium dissociation constant (Kd) was calculated as the ratio koff/kₒₙ.

[10] = target: T1, Full length human HtrA1 (HuHtrA1) …; experiment: phage competition ELISA: Fab-phage pre-incubated with serially diluted soluble HuHtrA1 (x axis), unbound phage captured on HuHtrA1-coated plate
Description: MAXISORP™ microtiter plates were coated with HuHtrA1 at 2 μg/ml in PBS for 2 hr at RT and then blocked with PBST buffer for another hour at RT. Purified phage from culture supernatants were incubated with serially diluted HuHtrA1 or MuHtrA1 in PBST buffer in a tissue-culture microtiter plate for an hour, after which 80 μl of the mixture was transferred to the HuHtrA1-coated wells for 15 minutes to capture unbound phage. The plate was washed with PBT buffer, and HRP-conjugated anti-M13 (Amersham Pharmacia Biotech) was added (1:5000 in PBST buffer) for one hour. The plate was washed with PBT buffer and developed by adding tetramethylbenzidine substrate (Kirkegaard and Perry Laboratories, Gaithersburg, Md.). The absorbance at 450 nm was plotted as a function of HuHtrA1 or MuHtrA1 concentration in solution to determine phage IC₅₀.

[11] = target: T2, Full length murine HtrA1 (MuHtrA1) …; experiment: SPR (BIAcore T100), single-cycle kinetics, biotinylated murine HtrA1 captured on streptavidin, Fab in solution
Description: as §1, §2

T2 sequence (Q9R118 other isoform, or with tags, fused parts or gaps): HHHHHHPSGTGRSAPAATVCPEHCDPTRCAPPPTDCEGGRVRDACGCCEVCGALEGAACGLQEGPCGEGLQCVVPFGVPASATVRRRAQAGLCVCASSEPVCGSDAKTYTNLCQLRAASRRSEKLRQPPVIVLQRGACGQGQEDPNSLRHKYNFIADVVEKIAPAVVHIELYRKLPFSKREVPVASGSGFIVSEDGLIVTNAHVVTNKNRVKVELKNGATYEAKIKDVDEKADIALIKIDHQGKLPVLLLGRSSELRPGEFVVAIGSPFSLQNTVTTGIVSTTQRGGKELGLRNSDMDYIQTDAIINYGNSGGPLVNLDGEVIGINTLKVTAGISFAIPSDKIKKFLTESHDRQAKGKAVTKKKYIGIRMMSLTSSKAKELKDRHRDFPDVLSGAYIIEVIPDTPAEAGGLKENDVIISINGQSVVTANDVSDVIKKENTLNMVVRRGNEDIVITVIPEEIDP
T1 sequence (Q92743 other isoform, or with tags, fused parts or gaps): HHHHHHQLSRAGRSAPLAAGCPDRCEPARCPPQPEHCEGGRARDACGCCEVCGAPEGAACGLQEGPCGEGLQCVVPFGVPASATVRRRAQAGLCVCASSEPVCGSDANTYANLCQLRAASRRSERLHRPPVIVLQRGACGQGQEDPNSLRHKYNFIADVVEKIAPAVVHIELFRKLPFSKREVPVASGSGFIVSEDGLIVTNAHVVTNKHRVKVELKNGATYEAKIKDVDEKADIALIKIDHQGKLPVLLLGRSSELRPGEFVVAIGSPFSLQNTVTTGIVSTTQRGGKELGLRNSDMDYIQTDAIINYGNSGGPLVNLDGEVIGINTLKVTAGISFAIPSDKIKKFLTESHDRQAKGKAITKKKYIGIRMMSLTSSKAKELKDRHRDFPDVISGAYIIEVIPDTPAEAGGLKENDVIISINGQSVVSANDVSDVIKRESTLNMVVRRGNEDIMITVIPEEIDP

Row | Binder | IC50, inhibition of BODIPY FL casein hydrolysis [1] | IC50, inhibition of H2-Opt peptide hydrolysis (FRET assay) [1] | fold increase in inhibitory potency of IgG94 vs. Fab94 [1] | IC50, inhibition of BODIPY FL casein hydrolysis [2] | fold reduction in binding (alanine mutant) [3] | fold reduction in binding (alanine mutant) [4] | fold reduction in binding (alanine mutant) [5] | fold reduction in binding (alanine mutant) [6] | fold reduction in binding (alanine mutant) [7] | fold reduction in binding (alanine mutant) [8] | Kd [9] | koff [9] | kon [9] | IC50 (read off the curve) [10] | Kd [11] | koff [11] | kon [11]
1 | IgG94 (anti-HtrA1 antibody YW505.94, IgG format) (antibody, V domains shown, The VH as printed ends at WGQGT; also called antibody 94; Ab94) VH: EVQLVESGGGLVQPGGSLRLSCAASGFNISGYYIHWVRQAPGKGLEWVGWIDPYGGDTNYADSVKGRFTISADTSKNTAYLQMNSLRAEDTAVYYCARGTFLTSWGHYFDYWGQGT VL: DIQMTQSPSSLSASVGDRVTITCRASQDVSTAVAWYQQKPGKAPKLLIYSASFLYSGVPSRFSGSGSGTDFTLTISSLQPEDFATYYCQQSYTTPPTFGQGTKVEIKR | 8.3 nM | 1.8 nM | ~16 fold | 5.4 nM | ≥ 5 fold | ≥ 5 fold | ≥ 5 fold | ≥ 5 fold | ≥ 5 fold | ≥ 5 fold | – | – | – | – | – | – | –
2 | YW505.94a Fab (Fab, V domains shown, Tested as Fab) VH: EVQLVESGGGLVQPGGSLRLSCAASGFSISGYYIHWVRQAPGKGLEWVGWIDPYGGDTNYADSVKGRFTISADTSKNTAYLQMNSLRAEDTAVYYCARGTFLTSWGHYFDYWGQGT VL: DIQMTQSPSSLSASVGDRVTITCRASQDVSTAVAWYQQKPGKAPKLLIYSASFLYSGVPSRFSGSGSGTDFTLTISSLQPEDFATYYCQQSYTTPPTFGQGTKVEIKR | – | – | – | – | – | – | – | – | – | – | 55 nM | 0.0448 s⁻¹ | 813000 M⁻¹ s⁻¹ | ~6 nM | 58 nM | 0.0856 s⁻¹ | 1.48e+06 M⁻¹ s⁻¹
